Data on two molecules can be found in article PMC5748844 (The Journal of Experimental Medicine, 2018).

The term Kd denotes the free concentration of one partner at which half of the binding sites on the other are occupied at equilibrium, for simple one-to-one binding.

Read-outs that look alike come from different tables or passages of the source.

Assay [1] concerns the target soluble RAGE (receptor for advanced glycation end products) (UniProt Q15109). Kind of assay: SPR. (In SPR one partner is held on a chip, and binding of the other changes the refractive index at the surface.)
Target sequence in this assay (Q15109 23-342): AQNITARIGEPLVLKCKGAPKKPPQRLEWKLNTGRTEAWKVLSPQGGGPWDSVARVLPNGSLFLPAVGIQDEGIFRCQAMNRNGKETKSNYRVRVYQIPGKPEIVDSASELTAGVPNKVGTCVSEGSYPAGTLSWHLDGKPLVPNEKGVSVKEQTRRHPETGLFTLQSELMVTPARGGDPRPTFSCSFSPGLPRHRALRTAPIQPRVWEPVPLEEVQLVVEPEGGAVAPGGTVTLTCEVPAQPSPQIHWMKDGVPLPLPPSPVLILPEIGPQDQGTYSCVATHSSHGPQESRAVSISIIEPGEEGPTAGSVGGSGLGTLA
For assay [2] the target is unchanged. The experiment in a line: SPR. The source holds these as a separate data set.
Target sequence in this assay (Q15109 23-342): as above

With “nonoxidizable HMGB1 mutant 3S (from UniProt P63159 1-215) (natural protein)”, in assay [1], the dissociation constant Kd was found to be 3.5 µM.

B1: fully reduced HMGB1 (High Mobility Group Box 1) (natural protein)
chain: MGKGDPKKPRGKMSSYAFFVQTCREEHKKKHPDASVNFSEFSKKCSERWKTMSAKEKGKFEDMAKADKARYEREMKTYIPPKGETKKKFKDPNAPKRPPSAFFLFCSEYRPKIKGEHPGLSIGDVAKKLGEMWNNTAADDKQPYEKKAAKLKEKYEKDIAAYRAKGKPDAAKKGVVKAEKSKKKKEEEDDEEDEEDEEEEEEEEDEDEEEDDDDE
modifications: all cysteines reduced
B1 showed a Kd in assay [2] of 3.5 µM. This lies in the single-digit micromolar range.
